Legend:
[1] = target: T1, FSH humaine recombinante Gonal-F (recombinant human FSH, Merck Serono) (human, UniProt P01215 25-116; P01225 19-129); assay: SPR (Biacore T100), A8 captured on anti-mouse Fc, hFSH injected 1,56 to 50nM
T1 construct: Commercial recombinant preparation; also called hFSH Gonal F; hFSH

[2] = target: T2, hCG Endo 5000 (purified human chorionic gonadotropin, Schering-Plough) (human, UniProt P01215 25-116; P0DN86 21-165); assay: ELISA saturation binding, Kd estimated with GraphPad Prism (one site - specific binding)
T2 construct: Commercial preparation; also called Gonadotropine Chorionique Endo5000

[3] = target: T3, eCG commerciale Chronogest (MSD) (equine, UniProt P01220 25-120; P08751 21-169); assay: as above
T3 construct: Commercial preparation; also called eCG Chronogest

[4] = target: T4, hCG Chorulon (human chorionic gonadotropin extracted from urine, MSD) (human, UniProt P01215 25-116; P0DN86 21-165); assay: as above
T4 construct: Commercial preparation

[5] = target: T5, FSH ovine dimérique (ovine follicle-stimulating hormone) (ovine, UniProt P01218 25-120; P01227 20-129); assay: cell-based or functional assay
[6] = target: T1, FSH humaine recombinante Gonal-F …; assay: SPR (Biacore T100), A8 captured on anti-mouse Fc, hFSH injected
[7] = target: T5, FSH ovine dimérique (ovine …); assay: SPR (Biacore T100), A8 captured on anti-mouse Fc, oFSH injected
[8] = target: T5, FSH ovine dimérique (ovine …); assay: SPR (Biacore T100), A8 captured on anti-mouse Fc, oFSH injected 1,56 to 50nM

T1 sequence (P01215 25-116 limits assumed, chain 1 of 2): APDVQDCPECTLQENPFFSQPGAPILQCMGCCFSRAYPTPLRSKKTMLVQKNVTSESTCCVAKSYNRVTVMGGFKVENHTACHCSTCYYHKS
T1 sequence (P01225 19-129 limits assumed, chain 2 of 2): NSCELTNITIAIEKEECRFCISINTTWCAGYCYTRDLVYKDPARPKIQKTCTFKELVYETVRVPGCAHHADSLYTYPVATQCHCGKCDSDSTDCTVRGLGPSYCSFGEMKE
T3 sequence (P01220 25-120 limits assumed, chain 1 of 2): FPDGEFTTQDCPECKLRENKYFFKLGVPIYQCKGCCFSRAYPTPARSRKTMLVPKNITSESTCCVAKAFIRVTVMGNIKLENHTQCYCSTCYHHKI
T3 sequence (P08751 21-169 limits assumed, chain 2 of 2): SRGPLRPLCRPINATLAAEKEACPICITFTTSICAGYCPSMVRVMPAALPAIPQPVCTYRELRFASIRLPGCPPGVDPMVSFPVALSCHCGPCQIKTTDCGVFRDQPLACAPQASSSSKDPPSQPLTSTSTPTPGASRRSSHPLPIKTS
T2 sequence (P01215 25-116 limits assumed, chain 1 of 2, other chains not shown): as the sequence (P01215 25-116 limits assumed, chain 1 of 2) above
T4 sequence (P01215 25-116 limits assumed, chain 1 of 2, other chains not shown): as the sequence (P01215 25-116 limits assumed, chain 1 of 2) above

Kd [1]: 4.7 nM
Kd [2]: ~100 nM
Kd [4]: ~100 nM
sécrétion d'AMPc (cAMP secretion), bovine granulosa cells, oFSH 3ng/ml [5]: 2.1 fold
sécrétion d'AMPc (cAMP secretion), bovine granulosa cells, oFSH 12,5 ng/ml [5]: 1.5 fold
koff [6]: 0.0011 s⁻¹
kon [6]: 240000 M⁻¹ s⁻¹
koff [7]: 0.00082 s⁻¹
kon [7]: 130000 M⁻¹ s⁻¹
Kd [8]: 6.3 nM
B1: anticorps monoclonal A8 (monoclonal antibody A8, hybridoma CNCM I-4828) (antibody, V domains shown)
VH: EVQLQESGGGLVQPGGSRKLSCAASGFTFSDFGTHWIRQAPEKGLEWVAYISSGSSTRYYADTVKGRFTISRDDPKNTLFLQMTSLRSEDTAMYYCARSYDGYHVPSFAYWGQGTLVTVSA
VL: DVLMTQTPLSLSVSLGDQASISCRSSQNIVHSNGNTYLEWYLQKPGQSPKLLIYRVSNRFSGIPDRFSGSSSGTDFTLKISRVEAEDLGVYYCFQGSHVPLTFGAGTKLELK
notes: Purified antibody or hybridoma supernatant, depending on the assay; also called AcM A8; ligand A8
Kd [3]: ~100 nM
